The results in this text go back to US6849441.

The experiment deals with protease TCES (hyperthermostable protease derived from Thermococcus celer), enzyme preparation (Thermococcus celer). Nature of the experiment: cell-based or functional assay.
Chain of protease TCES (hyperthermostable protease derived from Thermococcus celer), enzyme preparation (Thermococcus celer) (chain, as listed by the source limits assumed): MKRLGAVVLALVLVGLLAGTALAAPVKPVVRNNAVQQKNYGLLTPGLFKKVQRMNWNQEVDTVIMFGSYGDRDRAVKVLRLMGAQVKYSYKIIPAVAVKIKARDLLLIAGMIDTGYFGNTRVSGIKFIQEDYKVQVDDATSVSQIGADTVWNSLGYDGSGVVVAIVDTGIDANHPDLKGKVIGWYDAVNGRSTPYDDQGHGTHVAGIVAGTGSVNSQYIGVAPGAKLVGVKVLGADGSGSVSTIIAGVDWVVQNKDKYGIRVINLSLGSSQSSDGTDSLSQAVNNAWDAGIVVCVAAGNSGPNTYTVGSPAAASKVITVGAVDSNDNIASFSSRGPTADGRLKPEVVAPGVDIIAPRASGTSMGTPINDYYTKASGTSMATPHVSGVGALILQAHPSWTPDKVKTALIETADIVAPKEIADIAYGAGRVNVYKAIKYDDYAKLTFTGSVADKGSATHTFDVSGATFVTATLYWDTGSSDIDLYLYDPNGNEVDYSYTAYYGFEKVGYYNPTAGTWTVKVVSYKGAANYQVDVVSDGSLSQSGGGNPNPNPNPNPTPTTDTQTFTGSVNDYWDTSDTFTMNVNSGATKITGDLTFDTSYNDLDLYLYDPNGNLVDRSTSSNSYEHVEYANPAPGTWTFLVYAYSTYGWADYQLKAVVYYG
Turning to Antipain (peptide), the enzyme activity compared with control without reagent, after treatment at 37° C. for 30 minutes with 1 mM reagent amounted to 19%.

Chymostatin (peptide): the enzyme activity compared with control without reagent, after treatment at 37° C. for 30 minutes with 1 mM reagent came out at 0%.

Consider Leupeptin (peptide), for which the enzyme activity compared with control without reagent, after treatment at 37° C. for 30 minutes with 1 mM reagent worked out at 104%.

As for Pepstatin (peptide), the enzyme activity compared with control without reagent, after treatment at 37° C. for 30 minutes with 1 mM reagent amounted to 105%.
